Source: paper PMC4259882

Legend:
FadR K113 (W60G) [1] = molecular target: T1, FadR K113 (W60G) (Escherichia coli strain K113, UniProt P0A8V6 1-239, W60G); test: EMSA; up to 2 pmol protein; Roche DIG gel shift binding buffer (composition not stated), 15 min, room temperature; 0.1 pmol (Fig. 3) or 0.2 pmol (Fig. 6) probe; 7-7.5% native PAGE
FadR WT [2] = molecular target: T2, FadR WT (Escherichia coli K12, UniProt P0A8V6 1-239); test: EMSA; Roche DIG gel shift binding buffer (composition not stated), 15 min, room temperature; 0.1 pmol (Fig. 3) or 0.2 pmol (Fig. 6) probe; 7-7.5% native PAGE
FadR WT [3] = molecular target: T2, FadR WT; test: EMSA; dose-dependent, 0.05-10 pmol protein; Roche DIG gel shift binding buffer (composition not stated), 15 min, room temperature; 0.1 pmol (Fig. 3) or 0.2 pmol (Fig. 6) probe; 7-7.5% native PAGE
FadR K113 (W60G) [4] = molecular target: T1, FadR K113 (W60G); test: EMSA; up to 10 pmol protein; Roche DIG gel shift binding buffer (composition not stated), 15 min, room temperature; 0.1 pmol (Fig. 3) or 0.2 pmol (Fig. 6) probe; 7-7.5% native PAGE
FadR F74G/W75G = FadR F74G/W75G (Escherichia coli K12, UniProt P0A8V6 1-239, F74G;W75G); test: as above
FadR W75G = FadR W75G (Escherichia coli K12, UniProt P0A8V6 1-239, W75G); test: as above
FadR F74G = FadR F74G (Escherichia coli K12, UniProt P0A8V6 1-239, F74G); test: as above

B1: fadD probe 1 (dsDNA)
DNA 1: GAAACAGCGGCTGGTCCGCTGTTTCTGCATTCT
DNA 2: AGAATGCAGAAACAGCGGACCAGCCGCTGTTTC
B1: no binding (FadR K113 (W60G) [1]); binds (FadR WT [2]).

B2: fadBA probe (dsDNA)
DNA 1: ACTTCGACTCATCTGGTACGACCAGATCACCTTGCGG
DNA 2: CCGCAAGGTGATCTGGTCGTACCAGATGAGTCGAAGT
B2: no binding (FadR K113 (W60G) [1]); binds (FadR WT [2]).

B3: fabB probe (dsDNA)
DNA 1: TCTATTAAATGGCTGATCGGACTTGTTCGGCGTACAAGTGTACGCTATTGTGCATTC
DNA 2: GAATGCACAATAGCGTACACTTGTACGCCGAACAAGTCCGATCAGCCATTTAATAGA
B3: no binding (FadR K113 (W60G) [1]); binds (FadR WT [2]).

B4: fadL probe 1 (dsDNA)
DNA 1: GCAACATTCCAGCTGGTCCGACCTATACTCTCGCC
DNA 2: GGCGAGAGTATAGGTCGGACCAGCTGGAATGTTGC
B4: no binding (FadR K113 (W60G) [1]); binds (FadR WT [2]).

B5: fadL probe 2 (dsDNA)
DNA 1: CTCTCGCCACTGGTCTGATTTCTAAGATGTACCTC
DNA 2: GAGGTACATCTTAGAAATCAGACCAGTGGCGAGAG
B5: no binding (FadR K113 (W60G) [1]); binds (FadR WT [2]).

B6: fadD probe 2 (dsDNA)
DNA 1: GTAATTATCAAGCTGGTATGATGAGTTAATATTATG
DNA 2: CATAATATTAACTCATCATACCAGCTTGATAATTAC
B6: binds (FadR WT [3]); no binding (FadR K113 (W60G) [4]); no binding (FadR F74G/W75G). B6: no binding (FadR W75G); no binding (FadR F74G).

B7: fabA probe (dsDNA)
DNA 1: TTTATTCCGAACTGATCGGACTTGTTCAGCGTACACGTGTTAGCTATCCTGCGTGC
DNA 2: GCACGCAGGATAGCTAACACGTGTACGCTGAACAAGTCCGATCAGTTCGGAATAAA
B7: no binding (FadR K113 (W60G) [1]); binds (FadR WT [2]).
